Results reported in paper PMC6740199 (Molecular Biology of the Cell, 2019).

Molecular target: T1, six-histidine-tagged Bem1 (His6-Bem1), carrying Bem1 residues from 44 to 551 (S. cerevisiae, UniProt P29366 44-551)
T1 sequence: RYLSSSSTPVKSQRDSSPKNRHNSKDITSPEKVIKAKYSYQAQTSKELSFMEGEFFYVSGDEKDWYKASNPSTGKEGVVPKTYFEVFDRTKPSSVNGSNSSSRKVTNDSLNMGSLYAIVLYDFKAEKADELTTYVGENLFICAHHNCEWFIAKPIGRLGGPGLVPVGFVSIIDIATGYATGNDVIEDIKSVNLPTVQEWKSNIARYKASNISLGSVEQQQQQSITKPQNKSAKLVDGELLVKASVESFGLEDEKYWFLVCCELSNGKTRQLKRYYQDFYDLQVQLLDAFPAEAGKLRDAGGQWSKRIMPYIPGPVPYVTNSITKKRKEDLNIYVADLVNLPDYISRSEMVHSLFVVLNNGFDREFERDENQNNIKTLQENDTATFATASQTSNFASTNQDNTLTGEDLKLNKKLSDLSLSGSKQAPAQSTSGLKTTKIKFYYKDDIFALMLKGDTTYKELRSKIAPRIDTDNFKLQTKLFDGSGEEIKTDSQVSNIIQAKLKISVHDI
Assay: pull-down

binding result: binds
B1: GST (glutathione S-transferase)-Rsr1 (natural protein)
chain: MRDYKLVVLGAGGVGKSCLTVQFVQGVYLDTYDPTIEDSYRKTIEIDNKVFDLEILDTAGIAQFTAMRELYIKSGMGFLLVYSVTDRQSLEELMELREQVLRIKDSDRVPMVLIGNKADLINERVISVEEGIEVSSKWGRVPFYETSALLRSNVDEVFVDLVRQIIRNEMESVAVKDARNQSQQFSKIESPSTRLPSSAKQDTKQSNNKQSSKGLYNKSSQGQAKVKQSTPVNEKHKPSHAVPKSGSSNRTGISATSQQKKKKKNASTCTIL
